Article PMC6888457, “PpAKR1A, a Novel Aldo-Keto Reductase from Physcomitrella Patens, Plays a Positive Role in Salt Stress” (International Journal of Molecular Sciences, 2019)

T1: PpAKR1A (Physcomitrium patens, UniProt A9RMV1)
T1 construct: gene LOC112295666; full coding region (from ATGGCGTTCGAAGTGCCT), expressed in E. coli BL21 from pMAL-c1 (BamHI/SalI); purified on Ni-NTA as 'His-fusion' (tag description inconsistent: MBP vector vs His)
T1 sequence (A9RMV1 1-354): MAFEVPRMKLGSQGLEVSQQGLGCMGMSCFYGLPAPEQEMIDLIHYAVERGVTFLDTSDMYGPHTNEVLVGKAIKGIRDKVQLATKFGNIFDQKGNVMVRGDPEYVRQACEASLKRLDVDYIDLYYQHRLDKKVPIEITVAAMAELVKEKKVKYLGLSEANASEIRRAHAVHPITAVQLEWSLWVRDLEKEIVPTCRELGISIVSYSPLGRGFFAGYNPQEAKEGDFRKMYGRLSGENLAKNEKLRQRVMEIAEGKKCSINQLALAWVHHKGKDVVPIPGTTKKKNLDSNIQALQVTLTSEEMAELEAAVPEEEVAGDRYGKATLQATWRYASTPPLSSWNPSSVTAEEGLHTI

B1: PpAKR1A (Physcomitrium patens) (protein)
chain: T1 sequence (A9RMV1 1-354)
notes: full coding region (from …), expressed in E. coli BL21 from pMAL-c1 (BamHI/SalI); purified on Ni-NTA as 'His-fusion' (tag description inconsistent: MBP vector vs His)

Experiments:
[1] = biological target: T1, PpAKR1A; assay: spectrophotometric NADPH oxidation at […] nm, Michaelis-Menten non-linear fit; type: biochemical; details: 150 µM NADPH, 50 mM Tris-HCl pH 7.0, 25 °C; apparent constant
[2] = substrate: O=CC=O; assay: purified protein; type: biochemical, Physcomitrium patens; details: 150 µM NADPH, 50 mM Tris-HCl pH 7.0, 25 °C, apparent constant
[3] = substrate: CC(=O)C=O; assay: purified protein; type: biochemical, Physcomitrium patens; details: 150 µM NADPH, 50 mM Tris-HCl pH 7.0, 25 °C, apparent constant

Row | Molecule | Km [1] | Km [2] | kcat [2] | kcat/Km [2] | Km [3] | kcat [3] | kcat/Km [3]
1 | C=CC=O [Acrolein] | 6.2 ± 1.11 mM | – | – | – | – | – | –
2 | B1 | – | 1.526 ± 0.237 mM | 0.063 ± 0.041 s⁻¹ | 63 M⁻¹ s⁻¹ | 0.2262 ± 0.063 mM | 0.86 ± 0.055 s⁻¹ | 3810 M⁻¹ s⁻¹
